T1: L1-CR1 (Her054P)
T1 construct: also called 1.0
T1 chain: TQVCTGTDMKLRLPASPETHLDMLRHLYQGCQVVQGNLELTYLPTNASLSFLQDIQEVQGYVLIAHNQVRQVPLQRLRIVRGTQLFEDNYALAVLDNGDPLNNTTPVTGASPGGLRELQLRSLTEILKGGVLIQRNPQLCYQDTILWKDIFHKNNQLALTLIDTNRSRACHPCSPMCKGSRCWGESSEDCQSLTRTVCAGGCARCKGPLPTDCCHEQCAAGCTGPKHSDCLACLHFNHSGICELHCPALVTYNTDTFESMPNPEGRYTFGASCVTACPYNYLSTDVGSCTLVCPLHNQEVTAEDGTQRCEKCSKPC

B1: S1R3B1_BMV_1A1 (scFv, V domains shown)
VH: EVQLVQSGAEVKEPGASVKVSCKASGYDFSNYGFSWVRQAPGQGLEWMGWISSYNGYTNYAQRLQGRVTMTTDTSTSTAYMELRSLRSDDTAVYYCARDRGLGNWYFDLWGQGTLVTVSS
VL: QSVLTQPASVSGSPGQSITISCTGTSSDVGGYNYVSWYQQHPGKAPKLMIYEGSKRPSGVSNRFSGSKSGNTASLTISGLQAEDEADYYCSSYTTRSTRVFGGGTKLTVL
notes: scFv, soluble from bacterial periplasm in the screen; also called Her2_S1R3B1_BMV_1A1
B2: S1R3B1_BMV_1G11 (scFv, V domains shown)
VH: QVQLVQSGGGLVQPGGSLRLSCAASGFTFSTYAMSWARQAPGKGLEWVSSISGDGGRILDADSAKGRFTISRDNSKNTLYLQMNGLRVEDTALYYCARADGNYWGRGTMVTVSS
VL: B1 VL
notes: scFv, soluble from bacterial periplasm in the screen; also called Her2_S1R3B1_BMV_1G11
B3: S1R3A1_DP47_1A6 (scFv, V domains shown)
VH: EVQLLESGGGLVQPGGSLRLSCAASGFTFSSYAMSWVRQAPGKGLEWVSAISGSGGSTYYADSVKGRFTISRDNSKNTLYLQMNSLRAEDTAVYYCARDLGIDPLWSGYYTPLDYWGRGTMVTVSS
VL: HVILTQPPSASGTPGQRVTISCSGSSSNIGSNSVSWYQQLPGTAPKLLMYTNNQRPSGVPDRFSGSKSGTSASLAISGLQSEDEADYYCATWDASLNTWVFGGGTKVTVL
notes: scFv, soluble from bacterial periplasm in the screen; also called Her2_S1R3A1_DP47_1A6
B4: S1R3A1_BMV_1F3 (scFv, V domains shown)
VH: EVQLVESGEGLVKPGGSLRLSCTASGFTFRSYSLNWVRQAPGQGLEWVSSISSTSTYIYYADSVKGRFTISRDDAKNTLYLQMNSLRAEDTAAYYCVRLGSGGGYFPDYWGRGTLVTVSS
VL: SSELTQDPAVSVALGQTVRITCQGDSLRSYYASWYQQKPGQAPVLVIYGKNNRPSGIPDRFSGSSSGNTASLTITGAQAEDEADYYCNSRDSSGNHVVFGGGTKLTVL
notes: scFv, soluble from bacterial periplasm in the screen; also called Her2_S1R3A1_BMV_1F3
B5: S1R3B1_BMV_1H9 (scFv, V domains shown)
VH: QVQLQESGAGLVKPSGTLSLTCAVSGGSISSGNWWSWVRQPPGKGLEWIGEISHSGSTNYNPSLKSRVTISVDKSKNQFSLNLSSVTAADTAVYYCARVRGTVGDTRGPDYWGQGTLVTVSS
VL: B4 VL
notes: scFv, soluble from bacterial periplasm in the screen; also called Her2_S1R3B1_BMV_1H9
B6: S1R3B1_BMV_1H5 (scFv, V domains shown)
VH: QVQLQESGGGVVQPGGSLRLSCAASGFTFSGYGMHWVRQAPGKGLEWVASVRNDGSNTYYTDSVKDRFTISRDNTKNTLYLQMNSLRAEDTAVYYCAKSRRVMYGTSYYFDYWGRGTLVTVSS
VL: B4 VL
notes: scFv, soluble from bacterial periplasm in the screen; also called Her2_S1R3B1_BMV_1H5
B7: S1R3A1_CS_1B9 (scFv, V domains shown)
VH: KVQLVQSGTEVKKPGESLKISCQGSGYRFSSDWIAWVRQMPGKGLEWMGIVYPGDSDTRYSPSFQGQVTISADKSISTAYLQWSGLKASDTAKYYCARVQQAVGAKGYAMDVWGKGTLVTVSS
VL: QTVVIQEPSFSVSPGGTVTLTCGLSSGSVSTSYYPSWYRQTPGQAPHTLIHNTKIRSSGVPDRFSGSILGNNAALTITGAQADDESDYYCLLYMGSGIYVFGGGTKLTVL
notes: scFv, soluble from bacterial periplasm in the screen; also called Her2_S1R3A1_CS_1B9
B8: S1R3C1_CS_1D3 (scFv, V domains shown)
VH: QVQLQESGPGLVKPSQTLSLTCGISGDSVSSNSAAWNWIRQSPTRGLEWLGRTYYRSSWYHNYAPSMNSRLTIIADTSKNQFSLQLNSVTPEDTAVYYCASGWAFDVWGRGTLVTVSS
VL: QSVLTQPPSASGSPGQSVTISCTGTSSDVGAYDFVSWYQQHPGKAPKLMIYEVNKRPSGVPDRFSGSKSGNTASLTVSGLQAEDEADYYCSSYAGSKNLLFGGGTKLTVL
notes: scFv, on phage in the screen; also called Her2_S1R3C1_CS_1D3
B9: S1R3B2_BMV_1G2 (scFv, V domains shown)
VH: QVQLVQSGAEVKKPGSSVKVSCKASGYTFTSYGISWVRQAPGQGLEWMGWISAYNGNTNYAQKLQGRVTMTTDTSTSTAYMELRSLRSDDTAVYYCARVPGVSGSYPDYYYMDVWGKGTLVTVSS
VL: DIQMTQSPSTLSASIGDRVTITCRASEGIYHWLAWYQQKPGKAPKLLIYKASSLASGAPSRFSGSGSGTDFTLTISSLQPDDFATYYCQQYSNYPLTFGGGTKLEIK
notes: scFv, on phage in the screen; also called Her2_S1R3B2_BMV_1G2
B10: S1R3A1_CS_1B10 (scFv, V domains shown)
VH: EVQLVQSGAEVKKPGASVRVSCKGSGNTFTGHYIHWVRQAPGQGLEWLGWIDPNTGDIQYSENFKGSVTLTRDPSINSVFMDLIRLTSDDTAMYYCAREGAGLANYYYYGLDVWGRGTMVTVSS
VL: QTVVLQEPSFSVSPGGTVTLTCGLNFGSVSTAYYPSWYQQTPGQAPRTLIYGTNIRSSGVPDRFSGSIVGNKAALTITGAQTEDESDYYCALYMGSGMLFGGGTKVTVL
notes: scFv, soluble from bacterial periplasm in the screen; also called Her2_S1R3A1_CS_1B10

Target: T2, EQR (Her017P)
T2 construct: also called HER2 EQR-Fc; HER2 EQR DIMER
Test: ELISA, soluble scFv on EQR
Description: (§1) Various Her2-Fc proteins (e.g., Her008P, Her017P, Her018P, etc.) or a negative control murine IgG2a protein were coated overnight at 4° C. on 96-well Nunc Maxisorp at a concentration of 1 ug/ml in PBS. Alternatively, pre-blocked streptavidin-coated plates (Greiner) were coated with biotinylated Her2-Fc proteins for 1 hour at room temperature at a concentration of 1 ug/ml in block buffer (3% skim milk/1% BSA/PBS). Plates were washed three times using PBS and blocked for 1 hour at room temperature in 3% skim milk/1% BSA/PBS. Phage or peripreps were prepared as described above and were blocked for 1 hour at room temperature in an equal volume of 6% skim milk/1% BSA/PBS. Blocked plates were washed five times with PBS and 50 μl/well of blocked phage or periprep were transferred to the appropriate plates and incubated for 1 hour at room temperature. […] Plates were incubated for a further hour at room temperature and washed seven times with PBS. Signal was developed using TMB, the reaction stopped with H₂SO₄ and the absorbance read at 450 nm on an Envision plate reader (Perkin Elmer).

| Binder | binding result |
| --- | --- |
| B1 | binds |
| B2 | no binding |
| B3 | binds |
| B4 | binds |
| B5 | no binding |
| B6 | no binding |
| B7 | binds |
| B8 | binds |
| B9 | binds |
| B10 | binds |

Target: T3, ECD region of Her2 (human, UniProt P04626 23-652)
T3 construct: extracellular domain; Generic target of the scFv screen; also called extracellular domain (ECD) of Her2 (ErbB2)
Test: screening after three rounds of phage selection, soluble periplasmic scFv

| Binder | binding result |
| --- | --- |
| B1 | binds |
| B2 | binds |
| B3 | binds |
| B4 | binds |
| B5 | binds |
| B6 | binds |
| B7 | binds |
| B10 | binds |

Target: T1, L1-CR1 (Her054P)
Test: ELISA, soluble scFv on L1-CR1
Description: as §1

| Binder | binding result |
| --- | --- |
| B1 | no binding |
| B2 | no binding |
| B3 | no binding |
| B4 | no binding |
| B5 | no binding |
| B6 | no binding |
| B8 | no binding |
| B9 | no binding |

Target: T4, Full length HER2 (human, UniProt P04626 23-1255)
T4 construct: Endogenous HER2 on SKBR3, BT474, 22rv1, MDA-MB-175, MDA-MB-453 and MDA-MB-361 cells; also called HER2 on the cell surface; ErbB2
Test: cell ELISA, phage scFv, SKBR3 cells

| Binder | binding result |
| --- | --- |
| B8 | binds |
| B9 | binds |

Target: T5, Her008P, full-length extracellular domain (ECD) of Her2 expressed with a mIgG2a Fc tail (human; murine, UniProt P04626 23-652)
T5 construct: also called SIIS; SIIS (Dimer); not shown: murine IgG2a Fc tail
Test: ELISA, soluble scFv on ECD

| Binder | binding result |
| --- | --- |
| B1 | binds |
| B2 | binds |
| B3 | binds |
| B4 | binds |
| B5 | binds |
| B6 | binds |
| B7 | binds |
| B8 | binds |
| B9 | binds |
| B10 | binds |

Target: T3, ECD region of Her2
Test: cell ELISA, phage scFv, CHO-ECD cells
Description: 2×10⁴ CHOK1 cells/well were seeded in a 96-well tissue culture plate on Day 1 and incubated at 37° C./5% CO₂ for 2-4 days until a confluent monolayer was observed. Cells were washed five times with PBS (+ Ca/Mg ions) and blocked for 1 hour at room temperature with 3% skim milk/1% BSA/PBS (+ Ca/Mg ions). Phage or peripreps were prepared as described above and were blocked for 1 hour at room temperature in an equal volume of 6% skim milk/1% BSA/PBS (+ Ca/Mg ions). Blocked plates were washed five times with PBS (+ Ca/Mg ions) and 50 μl/well of blocked phage or periprep were transferred to the appropriate plates and incubated for 1 hour at room temperature. […] Plates were incubated for a further hour at room temperature and washed ten times with PBS (+ Ca/Mg ions). Signal was developed using TMB, the reaction stopped with H₂SO₄ and the absorbance read at 450 nm on an ENVISION plate reader (Perkin Elmer).

| Binder | binding result |
| --- | --- |
| B8 | binds |
| B9 | binds |

Target: T6, Her018P, Her2 ECD with a deletion in the CR2 (Domain IV) region expressed with a mIgG2a Fc tail (human; murine, UniProt P04626 23-599)
T6 construct: Shares the name HER018 with the trastuzumab SMIP; also called 1.8 (Dimer); dimeric HER018; not shown: murine IgG2a Fc tail (C-terminal dimerising carrier) and any junction residues
Test: ELISA, soluble scFv on Her018

| Binder | binding result |
| --- | --- |
| B1 | no binding |
| B2 | no binding |
| B3 | binds |
| B4 | binds |
| B5 | no binding |
| B6 | no binding |
| B7 | binds |
| B8 | no binding |
| B9 | binds |
| B10 | binds |

From patent publication US20090258005A1 (TRUBION PHARMACEUTICALS, published 2009)
